Numbering of substitutions follows the chain as printed. In names and notes the source's numbering stands.
B1: H1H6782P (antibody, human IgG1, V domains shown)
VH: EVQLVESGGGLVQPGRSLRLSCAASGFTFDDYAMHWVRQAPGKGLEWVSGIIWNSGHIGYGDSVKGRFTISRDNAKKSLYLQMNSLRAEDTALYYCARDSGRYQSYFDYWGQGTLVTVSS
VL: DIQMTQSPSTLSASVGDRVTITCRASHIISSWLAWYQQKPGKAPKVLIFKASSLESGVPSRFSGSGSGTEFTLTISSLQPDDFATYYCQQYNTYSRTFGQGTKVEIK
notes: human IgG1 Fc (H1H)
B2: H1H6765P (antibody, human IgG1, V domains shown)
VH: EVQLVESGGGVVRPGGSLRLSCVGSGFSFDDHGMNWVRQGPGKGLEWVSGFNWNGGSTNYAESVKGRFTISRDNARNSLFLQMNSLRAEDTALYYCVRGRSGWFNDAFDVWGPGTMVTVSS
VL: EIVLTQSPGTLSLSPGERATLSCRASQTINSNYLAWYRQKPGQTPRLLIYGTSSRATGIPDRFSGSGSGTDFSLTISRLEPEDFAVFYCQQYAGLPTFGPGTKVDIK
notes: human IgG1 Fc (H1H)
B3: H1H6976N (antibody, human IgG1, V domains shown)
VH: EVQLLESGGGFVQPGGSLRLSCAASGFTFSSYAMSWVRQAPGKGLEWVSIISSNGRYTYYADSVKGRFTISRDNSKNTLYLQMNSLRAEDTAVYYCATVTGDWFDPWGQGTLVTVSS
VL: DIQLTQSPSFLSASVGDRVTITCWASQDIDISLAWYQQKPGKAPKLLIYAASTLQSGVPSKFSGSGSGTDFTLTISSLQPEDFSTYYCQQLNSYPITFGQGTRLDIK
notes: also called H2M6976N
B4: H1H6793P (antibody, human IgG1, V domains shown)
VH: EVQLVESGGGLVQPGGSLRLSCAASGFSFSIYAMSWFRQAPGKGLEWVSAINGRGDGTHYADSVKGRFTISRDNSKTTLYLQMSSLRAEDTAVYYCAKPVMSTNGFDIWGQGTMVTVSS
VL: DIQMTQSPSTLSASVGDRVTITCRASQSISSWLAWYQLKPGKAPKLLIYKASNLESGVPSRFSGSGSGTEFTLTISSLQPDDFATYYCQQYNIYWTFGQGTKVEIK
notes: human IgG1 Fc (H1H)
B5: H1H6762P (antibody, human IgG1, V domains shown)
VH: QVQLVESGGGVVQPGRSLRLSCAASGFTFSHYGMVWVRQPPGKGLEWVALISFDGTTKYYADSVKGRFTISRDNSKNTLYLQMNSLRAEDTAVYFCVGAIAAAAFDLWGRGTLVTVSS
VL: EIVMTQSPATLSVSPGERATLSCRASQSVSSDLAWYQQKPGQAPRLLIYSASARATGIPARFTGSGSGTDFTLTISSLQSEDFAVYYCQQYNNWPMYTFGQGTKLEIK
notes: human IgG1 Fc (H1H)

What follows are binders tested against T1, monkey (macaca fascicularis) PRLR on HEK293 cells (macaca fascicularis, UniProt A0A2K5WXK1 25-619) (assay: FACS, HEK293/mfPRLR cells; further: test concentration or dose not given here).
T1 construct: also called mfPRLR; HEK293/mfPRLR
T1 sequence: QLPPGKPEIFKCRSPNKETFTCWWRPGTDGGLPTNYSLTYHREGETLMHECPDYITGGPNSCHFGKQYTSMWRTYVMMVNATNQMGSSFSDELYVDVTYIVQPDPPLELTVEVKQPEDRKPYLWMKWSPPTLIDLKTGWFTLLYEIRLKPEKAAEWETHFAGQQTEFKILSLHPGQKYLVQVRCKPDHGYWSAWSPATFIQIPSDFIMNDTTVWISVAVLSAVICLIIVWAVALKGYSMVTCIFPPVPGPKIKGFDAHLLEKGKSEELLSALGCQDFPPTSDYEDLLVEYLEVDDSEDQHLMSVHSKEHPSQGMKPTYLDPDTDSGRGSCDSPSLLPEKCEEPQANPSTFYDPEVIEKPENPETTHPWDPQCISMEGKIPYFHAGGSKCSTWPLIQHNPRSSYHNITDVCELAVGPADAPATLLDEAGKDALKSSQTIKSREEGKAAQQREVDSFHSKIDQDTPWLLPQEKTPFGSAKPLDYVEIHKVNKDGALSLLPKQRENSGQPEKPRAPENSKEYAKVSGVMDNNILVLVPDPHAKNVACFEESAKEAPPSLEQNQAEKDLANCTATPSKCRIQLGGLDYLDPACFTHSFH

Binder	FACS Cell Binding (Fold Above Background) [fold above background]
B1	32
B2	27
B3	29
B4	32
B5	26

What follows are binders tested against T2, human prolactin receptor (PRLR) on cells (human, UniProt P16471 25-622) (assay: FACS, HEK293/hPRLR cells; further: test concentration or dose not given here).
T2 construct: T47D, T47D#11 and MCF7 carry the endogenous receptor; also called hPRLR; HEK293/hPRLR
T2 sequence: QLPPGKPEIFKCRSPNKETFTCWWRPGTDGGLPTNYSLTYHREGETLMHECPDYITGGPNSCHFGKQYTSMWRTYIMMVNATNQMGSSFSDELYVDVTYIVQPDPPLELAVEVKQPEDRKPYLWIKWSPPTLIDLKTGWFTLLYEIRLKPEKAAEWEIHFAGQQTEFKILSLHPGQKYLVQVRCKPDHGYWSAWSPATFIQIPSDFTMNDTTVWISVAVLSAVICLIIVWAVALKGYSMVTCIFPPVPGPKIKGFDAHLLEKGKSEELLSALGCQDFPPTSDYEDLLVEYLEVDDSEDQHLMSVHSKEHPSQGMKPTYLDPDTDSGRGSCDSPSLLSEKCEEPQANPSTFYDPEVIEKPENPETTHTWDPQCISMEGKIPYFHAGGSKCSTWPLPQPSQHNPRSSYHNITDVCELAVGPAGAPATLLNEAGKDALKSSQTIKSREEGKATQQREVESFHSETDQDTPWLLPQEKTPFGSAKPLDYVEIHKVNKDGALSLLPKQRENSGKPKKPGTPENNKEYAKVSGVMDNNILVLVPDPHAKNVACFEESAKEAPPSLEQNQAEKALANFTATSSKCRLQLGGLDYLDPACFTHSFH

Binder	FACS Cell Binding (Fold Above Background) [fold above background]
B1	41
B2	38
B3	8
B4	2
B5	36

What follows are binders tested against T2, human prolactin receptor (PRLR) on cells (assay: FACS, T47D cells (native PRLR); further: test concentration or dose not given here).

Binder	FACS Cell Binding (Fold Above Background) [fold above background]
B1	43
B2	40
B3	37
B4	43
B5	38

Each binder was assayed against T2, human prolactin receptor (PRLR) on cells (assay: cell-based or functional assay).

Binder	% Internalization relative to Control I (alexa488 intensity in intracellular vesicles at 37 C, T47D cells) [%]
B1	179
B2	186
B3	170
B4	180
B5	186

Molecular target: T3, hPRLR.mFc (soluble dimeric human PRLR) (human)
T3 construct: dimeric construct
T3 chain: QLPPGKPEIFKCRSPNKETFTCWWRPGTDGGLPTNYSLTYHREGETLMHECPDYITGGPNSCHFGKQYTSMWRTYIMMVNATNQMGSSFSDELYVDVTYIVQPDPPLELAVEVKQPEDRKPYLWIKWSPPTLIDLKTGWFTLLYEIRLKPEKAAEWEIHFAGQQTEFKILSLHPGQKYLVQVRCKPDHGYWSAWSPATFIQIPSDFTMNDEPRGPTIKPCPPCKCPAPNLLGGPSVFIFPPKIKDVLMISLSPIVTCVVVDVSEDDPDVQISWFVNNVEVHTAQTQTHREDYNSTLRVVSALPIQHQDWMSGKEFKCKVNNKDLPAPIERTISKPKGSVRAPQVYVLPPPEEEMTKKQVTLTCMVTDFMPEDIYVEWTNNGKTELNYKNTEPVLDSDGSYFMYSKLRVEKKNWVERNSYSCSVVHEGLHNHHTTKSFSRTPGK
Assay: SPR, 37C, mAb capture
Protocol: (§1) Measurements were conducted on a T200 Biacore instrument. Kinetic association (kₐ) and dissociation (kd) rate constants were determined by processing and fitting the data to a 1:1 binding model using Scrubber 2.0 curve fitting software. Binding dissociation equilibrium constants (KD) and dissociative half-lives (t_{1/2}) were calculated from the kinetic rate constants as: KD (M)=kd/kₐ; and […].

Binder	T½ [min]
B1	89
B2	112
B3	82.6
B4	81
B5	112

Molecular target: T4, hPRLR.mmh (soluble monomeric human PRLR) (human)
T4 construct: soluble monomeric construct
T4 chain: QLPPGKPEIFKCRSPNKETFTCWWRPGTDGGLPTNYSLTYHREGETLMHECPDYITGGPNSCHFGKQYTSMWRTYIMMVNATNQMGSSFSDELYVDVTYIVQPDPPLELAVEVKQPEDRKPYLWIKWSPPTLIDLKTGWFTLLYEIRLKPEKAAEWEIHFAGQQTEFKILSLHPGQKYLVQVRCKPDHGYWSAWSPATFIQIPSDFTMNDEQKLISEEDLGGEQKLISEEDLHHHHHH
Assay: SPR, 37C, mAb capture
Protocol: as §1

Binder	T½ [min]
B1	16
B2	32
B3	3.7
B4	11
B5	25

Molecular target: T5, mfPRLR.mmh (soluble monomeric macaca fascicularis PRLR) (macaca fascicularis)
T5 construct: soluble monomeric construct; also called macaca fascicularis (mf) PRLR.mmh
T5 chain: T4 chain with I76V, A110T, I125M, I158T, T207I
Assay: SPR, 37C, mAb capture
Protocol: as §1

Binder	T½ [min]
B1	15
B2	215
B3	3.7
B4	11
B5	21

The binders below were run against T6, mouse PRLR on HEK293 cells (mouse, UniProt Q08501 20-608) (assay: FACS, HEK293/mPRLR cells; further: test concentration or dose not given here).
T6 construct: whole, on cells; also called mPRLR; HEK293/mPRLR
T6 sequence (looked up): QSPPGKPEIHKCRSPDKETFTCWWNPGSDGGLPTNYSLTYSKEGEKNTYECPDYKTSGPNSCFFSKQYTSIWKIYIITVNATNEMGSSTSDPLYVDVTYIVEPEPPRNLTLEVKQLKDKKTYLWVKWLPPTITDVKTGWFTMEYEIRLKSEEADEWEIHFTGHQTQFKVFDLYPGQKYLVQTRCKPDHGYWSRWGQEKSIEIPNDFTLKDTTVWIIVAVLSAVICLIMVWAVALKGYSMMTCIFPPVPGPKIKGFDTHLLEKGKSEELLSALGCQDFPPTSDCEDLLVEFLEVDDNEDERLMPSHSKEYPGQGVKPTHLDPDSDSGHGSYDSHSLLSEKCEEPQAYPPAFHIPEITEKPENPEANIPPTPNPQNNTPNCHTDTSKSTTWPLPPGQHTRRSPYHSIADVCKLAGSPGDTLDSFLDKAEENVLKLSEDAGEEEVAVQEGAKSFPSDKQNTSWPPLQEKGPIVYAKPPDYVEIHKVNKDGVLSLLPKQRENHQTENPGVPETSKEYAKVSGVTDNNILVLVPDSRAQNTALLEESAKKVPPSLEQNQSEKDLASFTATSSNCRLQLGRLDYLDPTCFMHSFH

Binder	FACS Cell Binding (Fold Above Background) [fold above background]
B1	4
B2	1
B3	1
B4	2
B5	2

— US20150056222A1 (Regeneron, published 2015)
